Reference: US20210206875A1, “ERBB-2 TARGETING AGENT AND A BISPECIFIC ANTIBODY WITH ANTIGEN-BINDING SITES THAT BIND AN EPITOPE ON AN EXTRACELLULAR PART OF ERB-2 AND ERBB-3, FOR TREATMENT OF AN INDIVIDUAL WITH AN ERBB-2, ERBB-2/ERBB-3 POSITIVE TUMOUR” (Merus N.V., priority 2017, published 2021)

Biological target: human ErbB-3 (HER3), on cells (human) (UniProt P21860)
Test: cell-based or functional assay

B1: #Ab6 (antibody, from another filing, IgG1, V domains shown)
VH: EVQLLESGGGLVQPGGSLRLSCAASGFTFSHYVMAWVRQAPGKGLEWVSSISSSGGWTLYADSVKGRFTISRDNSKNTLYLQMNSLRAEDTAVYYCTRGLKMATIFDYWGQGTLVTVSS
VL: QSALTQPASVSGSPGQSITISCTGTSSDVGSYNVVSWYQQHPGKAPKLIIYEVSQRPSGVSNRFSGSKSGNTASLTISGLQTEDEADYYCCSYAGSSIFVIFGGGTKVTVL
BxPC3 % Inhibition: -7%
MCF-7 IC50 (pM), HRG dependent proliferation: 504 pM
